According to US20170210802A1 (INNATE PHARMA, published 2017):

What was measured:
[1] = target: T1, human FcRn (recombinant, Example 10) (human, UniProt P55899 24-297; P61769 21-119, limits assumed); assay: SPR, recombinant FcRn immobilised on CM5, SCK/Two state reaction
T1 construct: also called recombinant FcRn proteins

[2] = target: T2, Human NKp46 recombinant proteins (human, UniProt O76036 22-258, limits assumed); assay: SPR (Biacore T100), antibody captured on Protein-A chip, recombinant human NKp46 injected (6.25-400 nM), 1:1 kinetic model
T2 construct: also called recombinant human NKp46
Protocol: SPR measurements were performed on a Biacore T100 apparatus (Biacore GE Healthcare) at 25° C. In all Biacore experiments HBS-EP+(Biacore GE Healthcare) and NaOH 10 mM served as running buffer and regeneration buffer respectively. Sensorgrams were analyzed with Biacore T100 Evaluation software. Protein-A was purchase from (GE Healthcare). Human NKp46 recombinant proteins were cloned, produced and purified at Innate Pharma.
Protein-A proteins were immobilized covalently to carboxyl groups in the dextran layer on a Sensor Chip CM5. The chip surface was activated with EDC/NHS (N-ethyl-N′-(3-dimethylaminopropyl) carbodiimidehydrochloride and N-hydroxysuccinimide (Biacore GE Healthcare)). Protein-A was diluted to 10 μg/ml in coupling buffer (10 mM acetate, pH 5.6) and injected until the appropriate immobilization level was reached (i.e. 2000 RU). Deactivation of the remaining activated groups was performed using 100 mM ethanolamine pH 8 (Biacore GE Healthcare).
Monovalent affinity study was done following a regular Capture-Kinetic protocol recommended by the manufacturer (Biacore GE Healthcare kinetic wizard). Seven serial dilutions of human NKp46 recombinant proteins, ranging from 6.25 to 400 nM were sequentially injected over the captured Bi-Specific antibodies and allowed to dissociate for 10 min before regeneration. The entire sensorgram sets were fitted using the 1:1 kinetic binding model.

T2 sequence (O76036 22-258 limits assumed): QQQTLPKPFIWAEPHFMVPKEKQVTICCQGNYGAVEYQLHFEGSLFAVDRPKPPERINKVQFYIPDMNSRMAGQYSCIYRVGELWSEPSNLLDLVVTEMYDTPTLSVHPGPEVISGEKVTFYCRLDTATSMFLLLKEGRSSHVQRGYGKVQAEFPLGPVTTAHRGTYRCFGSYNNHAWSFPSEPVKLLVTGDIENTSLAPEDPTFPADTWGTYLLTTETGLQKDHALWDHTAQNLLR
T1 sequence (P55899 24-297 limits assumed, form in doubt, chain 1 of 2): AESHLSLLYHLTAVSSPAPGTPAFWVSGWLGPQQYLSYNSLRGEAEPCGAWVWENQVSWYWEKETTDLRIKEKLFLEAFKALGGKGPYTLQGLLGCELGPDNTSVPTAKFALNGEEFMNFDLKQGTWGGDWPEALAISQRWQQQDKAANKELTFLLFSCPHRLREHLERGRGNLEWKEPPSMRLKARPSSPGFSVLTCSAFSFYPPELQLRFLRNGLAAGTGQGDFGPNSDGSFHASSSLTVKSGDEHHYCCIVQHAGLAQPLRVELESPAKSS
T1 sequence (P61769 21-119 limits assumed, form in doubt, chain 2 of 2): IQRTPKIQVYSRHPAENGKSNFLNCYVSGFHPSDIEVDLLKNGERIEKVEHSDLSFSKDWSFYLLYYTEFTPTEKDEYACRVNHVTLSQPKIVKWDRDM

Binder	Kd [1]	Kd [2]	koff [2]	kon [2]
CD19-F5-NKp46-3 (bispecific antibody, human IgG1, kappa, Heterotrimer with dimeric Fc domain; also called Format 5 (F5)) chain 1: not shown chain 2: not shown chain 3: DIVMTQSPATLSVTPGDRVSLSCRASQSISDYLHWYQQKSHESPRLLIKYASQSISGIPSRFSGSGSGSDFTLSINSVEPEDVGVYYCQNGHSFPLTFGAGTKLELKASTKGPSVFPLAPSSKSTSGGTAALGCLVKDYFPEPVTVSWNSGALTSGVHTFPAVLQSSGLYSLSSVVTVPSSSLGTQTYICNVNHKPSNTKVDKRVEPKSCDKTH	2.6 nM	67 nM	0.0051 s⁻¹	75600 M⁻¹ s⁻¹
CD19-F6-NKp46-3 (bispecific antibody, human IgG1, kappa, also called Format 6 (F6)) chain 1: not shown chain 2: not shown chain 3: DIVMTQSPATLSVTPGDRVSLSCRASQSISDYLHWYQQKSHESPRLLIKYASQSISGIPSRFSGSGSGSDFTLSINSVEPEDVGVYYCQNGHSFPLTFGAGTKLELKASTKGPSVFPLAPSSKSTSGGTAALGCLVKDYFPEPVTVSWNSGALTSGVHTFPAVLQSSGLYSLSSVVTVPSSSLGTQTYICNVNHKPSNTKVDKRVEPKSCDKTH	6 nM	63 nM	0.00503 s⁻¹	79300 M⁻¹ s⁻¹
